Tested on: K4 kissing-loop RNA reporter
Assay: apparent KD of K4 kissing-loop reporter; higher = weaker reporter binding
Conditions: Eterna round: R107
Procedure: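 RNA-MaP round R107: designed RNA switches with theophylline, tryptophan, arginine or FMN aptamers are transcribed on-chip within common flanks. They are titrated with a labelled K4 kissing-loop RNA reporter in RNA-MaP buffer (100 mM Tris pH 7.5, 80 mM KCl, 4 mM MgCl2), without ligand or with the indicated ligand. Median apparent KD per design.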

[1] = input ligand: theophylline 20 uM
[2] = input ligand: tryptophan 2.4 mM
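Also: bound reporter read as fluorescence of individual clusters on recovered sequencing chips by microscopy, with normalized cluster intensities fitted with a binding model.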

## UUAGUUAGAUUAUUAUUAGCCUACAAUGCUAAGGAUAUCCGAAUUCGGAGAAGGUAGUGAUGUUACUUAAGUAGGCACUAACAUU [AK7 Exc FMN A]
Input ligand: FMN 200 uM
  apparent KD of K4 kissing-loop reporter: 0.257 µM
Input ligand: arginine 13.2 mM
  apparent KD of K4 kissing-loop reporter: 0.745 µM
Input ligand: none
  apparent KD of K4 kissing-loop reporter: 0.932 µM
[1]
  apparent KD of K4 kissing-loop reporter: 0.925 µM
[2]
  apparent KD of K4 kissing-loop reporter: 0.671 µM

## UUAUCAUCAGCGGCCGCCACUGCAAAUUGGAGUGAUGUUCCAAGCGUGGAUAAUGAAAUCACUAGUAGGACCGGGUUGAUGAAUU [AK 1 Ex Trypt B]
Input ligand: FMN 200 uM
  apparent KD of K4 kissing-loop reporter: 0.309 µM
Input ligand: arginine 13.2 mM
  apparent KD of K4 kissing-loop reporter: 0.231 µM
Input ligand: none
  apparent KD of K4 kissing-loop reporter: 0.27 µM
[1]
  apparent KD of K4 kissing-loop reporter: 0.254 µM
[2]
  apparent KD of K4 kissing-loop reporter: 0.306 µM

## UUGACCUACUCAGGAUAUCCGCAGUGAUGUUGCGGUUGGCCUGAGCGGCAUGAAAAUCUUACUACAGGAGAAGGGAGAGGGUUAC [Atusgeis]
Input ligand: FMN 200 uM
  apparent KD of K4 kissing-loop reporter: 0.117 µM
Input ligand: arginine 13.2 mM
  apparent KD of K4 kissing-loop reporter: 0.0856 µM
Input ligand: none
  apparent KD of K4 kissing-loop reporter: 0.0826 µM
[1]
  apparent KD of K4 kissing-loop reporter: 0.0729 µM
[2]
  apparent KD of K4 kissing-loop reporter: 0.086 µM

## UUGAGCCGGACUUAAGUCCGGCUCUGCGAGCGAGGACCGGUACGGCCGCCACUCGGUGCAGUGAUGUUGCAUGGCCGCAAGGCCG [#2 Exclusion - Tryptophan A Attempt #11 (HarryS)]
Input ligand: FMN 200 uM
  apparent KD of K4 kissing-loop reporter: 0.269 µM
Input ligand: arginine 13.2 mM
  apparent KD of K4 kissing-loop reporter: 0.209 µM
Input ligand: none
  apparent KD of K4 kissing-loop reporter: 0.298 µM
[1]
  apparent KD of K4 kissing-loop reporter: 0.231 µM
[2]
  apparent KD of K4 kissing-loop reporter: 0.296 µM

## UUGAGCCUGACGGAAGUCAGGCUCUGCGAGCGAGGACCGGUACGGCCGCCACUCGGUGCAGUGAUGUUGCAUGGCCGCAAGGCCG [#2 Exclusion - Tryptophan A Attempt #16 (HarryS)]
Input ligand: FMN 200 uM
  apparent KD of K4 kissing-loop reporter: 0.311 µM
Input ligand: arginine 13.2 mM
  apparent KD of K4 kissing-loop reporter: 0.29 µM
Input ligand: none
  apparent KD of K4 kissing-loop reporter: 0.352 µM
[1]
  apparent KD of K4 kissing-loop reporter: 0.311 µM
[2]
  apparent KD of K4 kissing-loop reporter: 0.42 µM

## UUGCCUUUGAGCGAUACCAGCAGCGUCGGCCUUAGAUUGGGAGGCAUGGCAAGUGAUGUUUGCCCUUGGCAGCGCGUAUAGUACA [theeternabot_exclusion_KL_Theo_B_7]
Input ligand: FMN 200 uM
  apparent KD of K4 kissing-loop reporter: 0.197 µM
Input ligand: arginine 13.2 mM
  apparent KD of K4 kissing-loop reporter: 0.32 µM
Input ligand: none
  apparent KD of K4 kissing-loop reporter: 0.459 µM
[1]
  apparent KD of K4 kissing-loop reporter: 0.439 µM
[2]
  apparent KD of K4 kissing-loop reporter: 0.219 µM

## UUGGACCUUAGCCUCAAUAGAACUUUGUUACGAGGACCGGUACGGCCGCCACUCGUCGGGCUCCGAUAGCCAGUGAUGUUGGCAA [theeternabot_sameState_KL_Trp_A_16]
Input ligand: FMN 200 uM
  apparent KD of K4 kissing-loop reporter: 0.429 µM
Input ligand: arginine 13.2 mM
  apparent KD of K4 kissing-loop reporter: 0.405 µM
Input ligand: none
  apparent KD of K4 kissing-loop reporter: 0.693 µM
[1]
  apparent KD of K4 kissing-loop reporter: 1.01 µM
[2]
  apparent KD of K4 kissing-loop reporter: 0.212 µM

## UUGUAUACUUUUGUGUGCGAUGUGUAGCCGCGAGGACCGGUACGGCCGCCACUCGCUGAGAGUGAUGUUCUCUGGGCUAUAUAUC [Skye_SS_TA3]
Input ligand: FMN 200 uM
  apparent KD of K4 kissing-loop reporter: 1.1 µM
Input ligand: arginine 13.2 mM
  apparent KD of K4 kissing-loop reporter: 0.924 µM
Input ligand: none
  apparent KD of K4 kissing-loop reporter: 1.7 µM
[1]
  apparent KD of K4 kissing-loop reporter: 0.794 µM
[2]
  apparent KD of K4 kissing-loop reporter: 0.234 µM

## UUUAAAUAUAGUGAUGUUAUAUAACAAUGACGAGGACCGGUACGGCCGCCACUCGAGAGAGAUAAUGAUAAAAUAAAUAAUUUUC [AstrosSSTrypA#1]
Input ligand: FMN 200 uM
  apparent KD of K4 kissing-loop reporter: 0.48 µM
Input ligand: arginine 13.2 mM
  apparent KD of K4 kissing-loop reporter: 0.654 µM
Input ligand: none
  apparent KD of K4 kissing-loop reporter: 0.643 µM
[1]
  apparent KD of K4 kissing-loop reporter: 0.628 µM
[2]
  apparent KD of K4 kissing-loop reporter: 0.374 µM

## UUUAAAUAUAGUGAUGUUAUAUAACAAUGACGAGGACCGGUACGGCCGCCACUCGAGAGAGAUAAUGAUAAAAUACAUAAUUUUC [AstrosSSTrypA#2]
Input ligand: FMN 200 uM
  apparent KD of K4 kissing-loop reporter: 0.668 µM
Input ligand: arginine 13.2 mM
  apparent KD of K4 kissing-loop reporter: 0.746 µM
Input ligand: none
  apparent KD of K4 kissing-loop reporter: 0.806 µM
[1]
  apparent KD of K4 kissing-loop reporter: 0.709 µM
[2]
  apparent KD of K4 kissing-loop reporter: 0.474 µM

## UUUAAAUAUAGUGAUGUUAUAUAACAAUGACGAGGACCGGUACGGCCGCCACUCGAGAGAGAUAAUGGUCUUACAAAUGUAAGUC [AstrosSSTryA#8]
Input ligand: FMN 200 uM
  apparent KD of K4 kissing-loop reporter: 0.546 µM
Input ligand: arginine 13.2 mM
  apparent KD of K4 kissing-loop reporter: 0.589 µM
Input ligand: none
  apparent KD of K4 kissing-loop reporter: 0.852 µM
[1]
  apparent KD of K4 kissing-loop reporter: 0.738 µM
[2]
  apparent KD of K4 kissing-loop reporter: 0.399 µM

## UUUAACGAGUGAUGUUCGAAAAGUAAUAGUUAGGAUAUCGUUUUUUCGAGAAGGAACUUCGAAGUGAUACGAAAGUAUCGCUUCG [FMN A 1]
Input ligand: FMN 200 uM
  apparent KD of K4 kissing-loop reporter: 0.18 µM
Input ligand: arginine 13.2 mM
  apparent KD of K4 kissing-loop reporter: 0.359 µM
Input ligand: none
  apparent KD of K4 kissing-loop reporter: 0.287 µM
[1]
  apparent KD of K4 kissing-loop reporter: 0.351 µM
[2]
  apparent KD of K4 kissing-loop reporter: 0.181 µM

## UUUAUAUUGUCGGCCGCCACUGGAUCAAUAUUUGUAUGAUCUAGUUCAAAGUGAUGUUUUGAGUCCAGGACCGGGACAUUUGUUA [JR_ExcTryptoB_Sub005]
Input ligand: FMN 200 uM
  apparent KD of K4 kissing-loop reporter: 0.708 µM
Input ligand: arginine 13.2 mM
  apparent KD of K4 kissing-loop reporter: 0.558 µM
Input ligand: none
  apparent KD of K4 kissing-loop reporter: 0.669 µM
[1]
  apparent KD of K4 kissing-loop reporter: 0.558 µM
[2]
  apparent KD of K4 kissing-loop reporter: 0.917 µM

## UUUCGCUUCGUCUGAUAUAAUUGGCCAGAAGGAGCGGUAGAAUUACCAGGUAGGUCGCUGGCCCAGUGAUGUUGGGACUAGCGUG [Isrianve]
Input ligand: FMN 200 uM
  apparent KD of K4 kissing-loop reporter: 0.118 µM
Input ligand: arginine 13.2 mM
  apparent KD of K4 kissing-loop reporter: 0.103 µM
Input ligand: none
  apparent KD of K4 kissing-loop reporter: 0.104 µM
[1]
  apparent KD of K4 kissing-loop reporter: 0.107 µM
[2]
  apparent KD of K4 kissing-loop reporter: 0.0941 µM

## UUUCGGUUCUGAGGAUAUUCGGACAAAUAUAGUGAUGUUGUAUAAGGAGGAGGGUGUUGGGAGUGAGGAGAAGGCAGAAGAGGAU [ExFMNB.S]
Input ligand: FMN 200 uM
  apparent KD of K4 kissing-loop reporter: 0.838 µM
Input ligand: arginine 13.2 mM
  apparent KD of K4 kissing-loop reporter: 0.707 µM
Input ligand: none
  apparent KD of K4 kissing-loop reporter: 0.759 µM
[1]
  apparent KD of K4 kissing-loop reporter: 0.67 µM
[2]
  apparent KD of K4 kissing-loop reporter: 0.473 µM

## UUUGAAAUGUCUGAUACCAGAGAAAAUAUAUGUAGUGAUGUUAUAUACAAAUUUAAUAAGCUCCCUUGGCAGCAGUAUGAAUUUU [AstrosExc-TheB#14]
Input ligand: FMN 200 uM
  apparent KD of K4 kissing-loop reporter: 0.593 µM
Input ligand: arginine 13.2 mM
  apparent KD of K4 kissing-loop reporter: 0.717 µM
Input ligand: none
  apparent KD of K4 kissing-loop reporter: 0.796 µM
[1]
  apparent KD of K4 kissing-loop reporter: 0.748 µM
[2]
  apparent KD of K4 kissing-loop reporter: 0.582 µM

## UUUGGAAGCGGUGUUGAUUAGGGAGCGGAAGGAGCGCCGAGGAGGGCAGGUAGGUCGCCGGAAUGUAGUGAUGUUGCAUAGAGGU [ExArgA.Aa]
Input ligand: FMN 200 uM
  apparent KD of K4 kissing-loop reporter: 0.29 µM
Input ligand: arginine 13.2 mM
  apparent KD of K4 kissing-loop reporter: 0.265 µM
Input ligand: none
  apparent KD of K4 kissing-loop reporter: 0.214 µM
[1]
  apparent KD of K4 kissing-loop reporter: 0.526 µM
[2]
  apparent KD of K4 kissing-loop reporter: 0.178 µM

## UUUGGUUUCUCGGCCGCCACUCGUUGUCUAUCGGCUUCAGGGAUAUAGUGAUGUUAUGUAUAGAAGAGGACCGGGAGAAGGUUCC [ExTryptoB.Dy]
Input ligand: FMN 200 uM
  apparent KD of K4 kissing-loop reporter: 0.217 µM
Input ligand: arginine 13.2 mM
  apparent KD of K4 kissing-loop reporter: 0.169 µM
Input ligand: none
  apparent KD of K4 kissing-loop reporter: 0.303 µM
[1]
  apparent KD of K4 kissing-loop reporter: 0.237 µM
[2]
  apparent KD of K4 kissing-loop reporter: 0.165 µM

## UUUUUUUACUGAAGGAGCGGCAAUUGAUACGUAGAUAUAGUGAUGUUAUAUAAGAUAGAGAGCCAGGUAGGUCGCAGAUUUUUUU [ExArgB.W]
Input ligand: FMN 200 uM
  apparent KD of K4 kissing-loop reporter: 0.153 µM
Input ligand: arginine 13.2 mM
  apparent KD of K4 kissing-loop reporter: 0.171 µM
Input ligand: none
  apparent KD of K4 kissing-loop reporter: 0.163 µM
[1]
  apparent KD of K4 kissing-loop reporter: 0.167 µM
[2]
  apparent KD of K4 kissing-loop reporter: 0.147 µM
